Results: paper PMC5216127 (2017)

Experiments:
[1] = molecular target: T1, GST-TCF4 (8–411, deletion 66–325) (human, biotin (only where coated on the streptavidin biosensor, Figure 5e)); assay: BLI
T1 chain: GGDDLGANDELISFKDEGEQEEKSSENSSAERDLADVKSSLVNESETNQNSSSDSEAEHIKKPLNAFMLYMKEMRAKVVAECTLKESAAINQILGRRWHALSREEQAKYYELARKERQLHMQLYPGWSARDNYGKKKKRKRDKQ

[2] = molecular target: T2, GST-tagged TCF4 (amino acids 326–411) (human); assay: BLI
T2 chain: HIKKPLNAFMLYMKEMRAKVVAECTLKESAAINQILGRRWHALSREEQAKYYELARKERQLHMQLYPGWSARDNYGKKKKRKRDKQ

Kd [1]: 0.132 µM
Kd [2]: 0.288 µM
B1: TEAD4 (TEA, 38–105) (domain or fragment)
chain: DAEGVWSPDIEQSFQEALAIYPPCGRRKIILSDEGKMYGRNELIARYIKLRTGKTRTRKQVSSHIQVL
